Experimental data reported in article PMC3589492, “Intersubunit Ionic Interactions Stabilize the Nucleoside Diphosphate Kinase of Mycobacterium tuberculosis” (PLoS ONE, 2013).

What was measured:
[1] = biological target: the molecule itself; experiment: cell-based or functional assay
[2] = biological target: the molecule itself; experiment: SEC; Superose 12 column, 50 mM Hepes pH 7.4, 150 mM sodium chloride, 0.4 mL/min, calibrated with molecular weight markers

B1: Nucleoside diphosphate kinase of Mycobacterium tuberculosis, wild type (enzyme)
chain: MTERTLVLIKPDGIERQLIGEIISRIERKGLTIAALQLRTVSAELASQHYAEHEGKPFFGSLLEFITSGPVVAAIVEGTRAIAAVRQLAGGTDPVQAAAPGTIRGDFALETQFNLVHGSDSAESAQREIALWFPGA
notes: Nucleoside diphosphate kinase, Mycobacterium tuberculosis; No tag is mentioned; also called Mt-NDPK; wt Mt-NDPK
What does the source list for B1?
c1/2 of inactivation/unfolding in urea (10 µg/mL, 16 h) [1]: ~5.2 M; stoichiometry N [2]: 6
